This data set relates to ATP. The experiment in a line: switch fluorescence ratio, 500 uM ATP over buffer (Cy3 cluster intensity, sum of 5 cycles each) (fold (ratio)); higher = stronger signal-on switching upon ATP binding; sequences stand for … in TCGTCGGCAGCGTCAGATGTGTATAAGAGACAGTTTTTTTTTTTTTTTTTTTTTTTTT…TC. The following applies: aptamer strand: ATP DNA aptamer (quencher-CACCTGGGGGAGTATTGCGGAGGAAGG + anchor), 100 nM annealed; ATP concentration: 500 uM. The gist of the method: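 Imaging in selection buffer was followed by imaging after 15 min with 500 uM ATP at 22 °C, for Cy3-labelled switching-strand clusters annealed to 100 nM quencher-labelled ATP aptamer on a modified Illumina MiSeq flow-cell. Five of these buffer/ATP cycles ran, separated by NaOH stripping and re-annealing. The fluorescence ratio per cluster is summed target-cycle over summed buffer-cycle Cy3 intensity, averaged per switch-domain sequence; clusters outside 100-1000 RFU were removed.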

The values below come from the supplement of paper PMC10126150.

± gives the standard deviation of the averaged measurements.
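Note: ATP exposure 15 min at 22 °C before imaging.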

Consider TTGTTTTATT, for which the switch fluorescence ratio worked out at 0.981 ± 0.038.

As for AGTTGGTTAT, the switch fluorescence ratio was found to be 0.974 ± 0.022.

Take TTATAATGCC: the switch fluorescence ratio came out at 0.997 ± 0.078.

As for GAGTTTTATG, the switch fluorescence ratio was 0.9631 ± 0.0025.

As to AGTCCTTAGC, the switch fluorescence ratio is 1 ± 0.071.

As to AAGGGCTATA, the switch fluorescence ratio stood at 1.01 ± 0.047.

For the sequence GCACGTATTC, the switch fluorescence ratio was 1.113 ± 0.0047.

Consider GGGATAGGCA, for which the switch fluorescence ratio was 1.01 ± 0.039.

With ATCAAATATG, the switch fluorescence ratio came to 1.01 ± 0.008.

As to TATGTAGAGA, the switch fluorescence ratio was 0.99 ± 0.023.

Consider TAATGCCTGT, for which the switch fluorescence ratio came out at 0.979 ± 0.021.

GGCATTTAAA: the switch fluorescence ratio stood at 0.983 ± 0.024.

For the sequence CAATTATGAC, the switch fluorescence ratio amounted to 1 ± 0.045.

For CGGGGTCATG, the switch fluorescence ratio was determined as 0.991 ± 0.024.

On to AAGTCGACGT, for which the switch fluorescence ratio came out at 1.03 ± 0.041.

TATGAAATAG: the switch fluorescence ratio worked out at 0.99 ± 0.034.

On to CGTTTACCGA, for which the switch fluorescence ratio worked out at 0.942 ± 0.034.

Consider GCTCATGAAT, for which the switch fluorescence ratio was 1 ± 0.023.

With GTTTTTTTTG, the switch fluorescence ratio came to 0.999 ± 0.029.

As to TGGCTCTGAG, the switch fluorescence ratio came to 0.9973 ± 0.0028.

As for AAAATGGTAT, the switch fluorescence ratio was determined as 1.01 ± 0.038.

Consider GCCATTAGGA, for which the switch fluorescence ratio turned out to be 1.015 ± 0.0049.

As for TACTTTTTAT, the switch fluorescence ratio stood at 1.01 ± 0.018.

Regarding TGGGTAGAAC, the switch fluorescence ratio is 1.12 ± 0.13.

Regarding GATTTATATC, the switch fluorescence ratio stood at 0.993 ± 0.028.

Take ATCGTCGGGA: the switch fluorescence ratio is 0.977 ± 0.02.

Turning to TTACGGCGCT, the switch fluorescence ratio was 1.06 ± 0.062.

Regarding TTTAGTTGAA, the switch fluorescence ratio stood at 0.988 ± 0.023.

Take GATGGATCGA: the switch fluorescence ratio was 0.977 ± 0.039.

Regarding AGATAAGTTT, the switch fluorescence ratio turned out to be 1.01 ± 0.034.

Take AGGAATATAC: the switch fluorescence ratio turned out to be 1.11 ± 0.066.

As to TTAAAACGGT, the switch fluorescence ratio amounted to 1.21 ± 0.31.

As to ATGGTTGTGT, the switch fluorescence ratio was found to be 0.983 ± 0.034.

As to TCGGTATGAA, the switch fluorescence ratio came to 1.01 ± 0.018.

As for GCAGTTGGTA, the switch fluorescence ratio amounted to 0.989 ± 0.02.

GAATAAAAAC: the switch fluorescence ratio turned out to be 1.01 ± 0.013.

As to GATTTGTGGG, the switch fluorescence ratio was found to be 0.994 ± 0.024.

For the sequence TAGGGTTGCA, the switch fluorescence ratio was 1 ± 0.057.

On to TTATGTCTTG, for which the switch fluorescence ratio worked out at 1.01 ± 0.019.

For the sequence ACTCATAATT, the switch fluorescence ratio is 1.0222 ± 0.00042.

With TCTGAGATAA, the switch fluorescence ratio turned out to be 1.0208 ± 0.00085.

Consider CGTTAATAGC, for which the switch fluorescence ratio was 1.14 ± 0.019.

Turning to AGATCGTGAA, the switch fluorescence ratio was 1 ± 0.0032.

Take TTAGAAAGGA: the switch fluorescence ratio turned out to be 1.01 ± 0.025.

In the case of ATGGTATATA, the switch fluorescence ratio came to 0.982 ± 0.025.

With TGGTGGGAGG, the switch fluorescence ratio was 1 ± 0.015.

As to TCTCCCGGCA, the switch fluorescence ratio came out at 1.34 ± 0.2.

Turning to TGGAGTTGGT, the switch fluorescence ratio worked out at 0.987 ± 0.047.

Consider ATGGGGGGG, for which the switch fluorescence ratio stood at 1.01 ± 0.014.

With GCCGAGGGGA, the switch fluorescence ratio was found to be 1.05 ± 0.025.

On to AGTGGGGGTC, for which the switch fluorescence ratio came to 1.02 ± 0.021.

For the sequence AGTATGGTGG, the switch fluorescence ratio came to 0.998 ± 0.013.

Regarding AAAGCTTTGG, the switch fluorescence ratio came out at 0.963 ± 0.021.

Turning to TTGCGGCTTG, the switch fluorescence ratio stood at 0.9923 ± 0.0088.

Regarding CGGCTGGCGG, the switch fluorescence ratio was 0.997 ± 0.026.

Take AGGGCATTGA: the switch fluorescence ratio was found to be 1.01 ± 0.022.

With TCAACAGGGA, the switch fluorescence ratio was 1.08 ± 0.15.

Turning to TTCACTCTTT, the switch fluorescence ratio is 1.017 ± 0.0099.

Take TTTGTCATTC: the switch fluorescence ratio was found to be 1 ± 0.0017.

Turning to TATGGGAGGC, the switch fluorescence ratio was 1.01 ± 0.059.

On to CATGGGAATT, for which the switch fluorescence ratio is 0.982 ± 0.032.

With CAGTCGCGTG, the switch fluorescence ratio was found to be 0.993 ± 0.018.

Regarding TGGGTTTTCA, the switch fluorescence ratio came to 0.984 ± 0.016.

As to AACGTGGCGG, the switch fluorescence ratio was found to be 0.988 ± 0.018.

For CCCATTTTGT, the switch fluorescence ratio was 0.991 ± 0.02.

As to GTTATAACG, the switch fluorescence ratio is 1 ± 0.05.

As for TGAGTTTTTG, the switch fluorescence ratio is 0.998 ± 0.022.

In the case of AATTTAGTGC, the switch fluorescence ratio is 0.998 ± 0.07.

For the sequence TCTAGACGTC, the switch fluorescence ratio came out at 0.9972 ± 0.0081.

Consider AGAAGTGGGG, for which the switch fluorescence ratio was 0.989 ± 0.039.

For the sequence AGGGTTTTTT, the switch fluorescence ratio stood at 1.02 ± 0.039.

Consider GTTTGAATGT, for which the switch fluorescence ratio is 0.97301 ± 0.0004.

Turning to AGACTATGTG, the switch fluorescence ratio came to 0.991 ± 0.024.

For TTAAGCCTTT, the switch fluorescence ratio worked out at 1.02 ± 0.034.

As for TCCGACGGTT, the switch fluorescence ratio was 3.31 ± 0.46.

With GACATGAGGG, the switch fluorescence ratio stood at 1 ± 0.071.

For the sequence AGGTGCATAT, the switch fluorescence ratio worked out at 1.045 ± 0.0041.

With TAATAATTAA, the switch fluorescence ratio is 0.992 ± 0.024.

As to TGATTTTGAG, the switch fluorescence ratio came out at 1.01 ± 0.018.

Take TTGGGGTAGC: the switch fluorescence ratio was determined as 1.01 ± 0.036.

Take CTGAGGGGT: the switch fluorescence ratio is 1.05 ± 0.037.

Turning to AAAAATCGGT, the switch fluorescence ratio stood at 0.996 ± 0.044.

In the case of TCCGAAGGTA, the switch fluorescence ratio worked out at 1.07 ± 0.025.

On to GTTTGATGGG, for which the switch fluorescence ratio came to 0.981 ± 0.033.

As for GGGCCTTGGG, the switch fluorescence ratio was 1.03 ± 0.049.

Consider GCCTTCGGAA, for which the switch fluorescence ratio stood at 3.13 ± 0.065.

As to TAAAAGCAAT, the switch fluorescence ratio turned out to be 2.1 ± 0.9.

For the sequence TTCGGCAGTG, the switch fluorescence ratio was 1.022 ± 0.0079.

As to TTAGGATAGT, the switch fluorescence ratio turned out to be 0.998 ± 0.027.

In the case of ATGGCTGGGG, the switch fluorescence ratio came out at 1 ± 0.019.

TAGGCCAGTT: the switch fluorescence ratio was 0.996 ± 0.011.

With TTTTCGTTTT, the switch fluorescence ratio is 1.04 ± 0.082.

Regarding AAAAATGGGG, the switch fluorescence ratio is 0.972 ± 0.0098.

Take ATGTTTGATG: the switch fluorescence ratio was 0.998 ± 0.024.

On to TTCAAATCCC, for which the switch fluorescence ratio worked out at 1.005 ± 0.0094.

For the sequence GGCTTTTTTA, the switch fluorescence ratio is 1.05 ± 0.028.

As for CAGGTGAGAC, the switch fluorescence ratio was found to be 1.31 ± 0.04.

With CCGGATTATG, the switch fluorescence ratio amounted to 1.05 ± 0.016.

Turning to TAGGGGGGCT, the switch fluorescence ratio came to 0.968 ± 0.045.

In the case of AAGGGGGCAT, the switch fluorescence ratio worked out at 0.979 ± 0.033.

Consider GGGTCCTGGG, for which the switch fluorescence ratio was 0.973 ± 0.012.

For CGTCGGTAAG, the switch fluorescence ratio is 1.04 ± 0.027.

For the sequence TTGGATTTGG, the switch fluorescence ratio amounted to 1.02 ± 0.051.

With AGGTAAATGG, the switch fluorescence ratio is 1.02 ± 0.026.

Take TGGTCCATTT: the switch fluorescence ratio was determined as 1.014 ± 0.0091.

Regarding GCATGGAAGG, the switch fluorescence ratio stood at 1.013 ± 0.0065.

As for ACTTATCAGG, the switch fluorescence ratio turned out to be 1.04 ± 0.045.

Turning to CTGGTTGGGT, the switch fluorescence ratio turned out to be 1.01 ± 0.027.

For the sequence CATATCGCCC, the switch fluorescence ratio amounted to 1.06 ± 0.039.

Take AAATAATTTC: the switch fluorescence ratio was 1 ± 0.027.

On to CAGATTGGGG, for which the switch fluorescence ratio was found to be 1 ± 0.025.

As to GAATGGGGGT, the switch fluorescence ratio worked out at 0.982 ± 0.02.

As for GGAATCCGTT, the switch fluorescence ratio was found to be 1.027 ± 0.0025.

For ATAAGCGTTC, the switch fluorescence ratio was determined as 1.04 ± 0.0013.

In the case of CCGAGTAGGG, the switch fluorescence ratio was 1.074 ± 0.0031.

Take GGGTAAATAG: the switch fluorescence ratio was found to be 1.034 ± 0.007.

Take CAGAGTTTGA: the switch fluorescence ratio was found to be 0.969 ± 0.0047.

Turning to TATTTAGTCG, the switch fluorescence ratio was found to be 0.975 ± 0.019.

Take AGTGGTGGAG: the switch fluorescence ratio turned out to be 1 ± 0.04.

On to CGGAGAATGG, for which the switch fluorescence ratio is 1.11 ± 0.13.
